Reference: patent US9717715B2, “Method of combination therapy using an anti-C-Met antibody” (SAMSUNG ELECTRONICS CO., LTD., dated 2017)

Columns and labels:
[1] = biological target: c-Met on human cancer cells (human, UniProt P08581); experiment: cell-based or functional assay
human c-Met protein [2] = biological target: T1, human c-Met protein (human, UniProt P08581); experiment: SPR (Biacore), antibody immobilised on CM5 chip, human c-Met protein injected at 0.39-100 nM
human c-Met protein [3] = biological target: T1, human c-Met protein; experiment: SPR (Biacore), by the method of Example 8

B1: humanized antibody huAbF46 (H4-heavy chain and H4-light chain) (antibody, V domains shown)
VH: EVQLVESGGGLVQPGGSLRLSCAASGFTFTDYYMSWVRQAPGKGLEWLGFIRNKANGYTTEYSASVKGRFTISRDNSKNTLYLQMNSLRAEDTAVYYCARDNWFAYWGQGTLVTVSS
VL: DIQMTQSPSSLSASVGDRVTITCKSSQSLLASGNQNNYLAWHQQKPGKAPKMLIIWASTRVSGVPSRFSGSGSGTDFTLTISSLQPEDFATYYCQQSYSAPLTFGQGTKVEIKR
Akt phosphorylation (%) in Caki-1 cells, 5 ug/ml, 30 min [1]: 29.1%
relative cell viability (%) of MKN45 cells, 72 h [1]: 77%
Kd (human c-Met protein [2]): 2.19 nM
koff (human c-Met protein [2]): 0.000723 s⁻¹
kon (human c-Met protein [2]): 329000 M⁻¹ s⁻¹

B2: huAbF46-H4-A1 (antibody, V domains shown)
VH: EVQLVESGGGLVQPGGSLRLSCAASGFTFTDYYMSWVRQAPGKGLEWLGFIRNKANGYTTEYSASVKGRFTISRDNSKNTLYLQMNSLRAEDTAVYYCARDNWFAYWGQGTLVTVSS
VL: DIQMTQSPSSLSASVGDRVTITCKSSQSLLASGNQNNYLAWHQQKPGKAPKMLIIWASTRVSGVPSRFSGSGSGTDFTLTISSLQPEDFATYYCQQSYSRPYTFGQGTKVEIKR
Akt phosphorylation (%) in Caki-1 cells, 5 ug/ml, 30 min [1]: 15.3%
relative cell viability (%) of MKN45 cells, 72 h [1]: 74%
Kd (human c-Met protein [2]): 0.06 nM
koff (human c-Met protein [2]): 4.53e-05 s⁻¹
kon (human c-Met protein [2]): 739000 M⁻¹ s⁻¹

B3: L3-11Y (antibody, V domains shown)
VH: EVQLVESGGGLVQPGGSLRLSCAASGFTFTDYYMSWVRQAPGKGLEWLGFIRNKANGYTTEYSASVKGRFTISRDNSKNTLYLQMNSLRAEDTAVYYCARDNWFAYWGQGTLVTVSS
VL: DIQMTQSPSSLSASVGDRVTITCKSSQSLLAWGNQNNYLAWYQQKPGKAPKMLIIWASTRVSGVPSRFSGSGSGTDFTLTISSLQPEDFATYYCQQSYSRPYTFGQGTKVEIKR
Kd (human c-Met protein [3]): < 0.01 nM

B4: huAbF46-H4-A1 (U6-HC7) (antibody)
heavy: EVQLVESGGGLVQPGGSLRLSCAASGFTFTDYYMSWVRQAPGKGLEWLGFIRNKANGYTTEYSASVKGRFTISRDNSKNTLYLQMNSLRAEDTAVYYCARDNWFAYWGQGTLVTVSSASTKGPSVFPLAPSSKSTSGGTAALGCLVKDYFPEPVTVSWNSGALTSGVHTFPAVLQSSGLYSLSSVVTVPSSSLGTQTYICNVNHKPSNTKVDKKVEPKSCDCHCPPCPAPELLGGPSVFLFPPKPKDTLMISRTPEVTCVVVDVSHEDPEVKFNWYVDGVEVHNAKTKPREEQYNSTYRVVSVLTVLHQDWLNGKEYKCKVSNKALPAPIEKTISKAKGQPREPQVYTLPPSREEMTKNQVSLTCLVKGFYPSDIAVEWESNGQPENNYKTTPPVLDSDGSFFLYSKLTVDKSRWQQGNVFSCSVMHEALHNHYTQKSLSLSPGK
light: DIQMTQSPSSLSASVGDRVTITCKSSQSLLASGNQNNYLAWYQQKPGKAPKMLIIWASTRVSGVPSRFSGSGSGTDFTLTISSLQPEDFATYYCQQSYSRPYTFGQGTKVEIKRTVAAPSVFIFPPSDEQLKSGTASVVCLLNNFYPREAKVQWKVDNALQSGNSQESVTEQDSKDSTYSLSSTLTLSKADYEKHKVYACEVTHQGLSSPVTKSFNRGEC
Akt phosphorylation (%) in Caki-1 cells, 5 ug/ml, 30 min [1]: ≤ 18%
relative cell viability (%) of MKN45 cells, 72 h [1]: ~60%

B5: huAbF46-H4-A1 (IgG2 Fc) (antibody)
heavy: EVQLVESGGGLVQPGGSLRLSCAASGFTFTDYYMSWVRQAPGKGLEWLGFIRNKANGYTTEYSASVKGRFTISRDNSKNTLYLQMNSLRAEDTAVYYCARDNWFAYWGQGTLVTVSSASTKGPSVFPLAPCSRSTSESTAALGCLVKDYFPEPVTVSWNSGALTSGVHTFPAVLQSSGLYSLSSVVTVPSSNFGTQTYTCNVDHKPSNTKVDKTVERKCCVECPPCPAPPVAGPSVFLFPPKPKDTLMISRTPEVTCVVVDVSHEDPEVQFNWYVDGVEVHNAKTKPREEQFNSTFRVVSVLTVVHQDWLNGKEYKCKVSNKGLPAPIEKTISKTKGQPREPQVYTLPPSREEMTKNQVSLTCLVKGFYPSDIAVEWESNGQPENNYKTTPPMLDSDGSFFLYSKLTVDKSRWQQGNVFSCSVMHEALHNHYTQKSLSLSPGK
light: DIQMTQSPSSLSASVGDRVTITCKSSQSLLASGNQNNYLAWYQQKPGKAPKMLIIWASTRVSGVPSRFSGSGSGTDFTLTISSLQPEDFATYYCQQSYSRPYTFGQGTKVEIKRTVAAPSVFIFPPSDEQLKSGTASVVCLLNNFYPREAKVQWKVDNALQSGNSQESVTEQDSKDSTYSLSSTLTLSKADYEKHKVYACEVTHQGLSSPVTKSFNRGEC
Akt phosphorylation (%) in Caki-1 cells, 5 ug/ml, 30 min [1]: ≤ 18%
relative cell viability (%) of MKN45 cells, 72 h [1]: ~60%

B6: huAbF46-H4-A1 (IgG2 hinge) (antibody)
heavy: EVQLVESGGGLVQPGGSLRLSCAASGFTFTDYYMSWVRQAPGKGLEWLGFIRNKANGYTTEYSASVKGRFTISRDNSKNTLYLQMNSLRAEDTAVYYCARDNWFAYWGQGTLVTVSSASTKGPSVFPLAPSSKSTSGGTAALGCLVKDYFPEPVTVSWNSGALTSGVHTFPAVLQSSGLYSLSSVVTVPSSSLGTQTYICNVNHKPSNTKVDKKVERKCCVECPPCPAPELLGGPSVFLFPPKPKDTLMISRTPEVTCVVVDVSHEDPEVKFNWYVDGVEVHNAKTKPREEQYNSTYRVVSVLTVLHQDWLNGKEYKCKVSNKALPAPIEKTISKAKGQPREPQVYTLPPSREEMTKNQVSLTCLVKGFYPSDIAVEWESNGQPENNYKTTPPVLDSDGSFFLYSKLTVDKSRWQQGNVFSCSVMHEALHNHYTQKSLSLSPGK
light: DIQMTQSPSSLSASVGDRVTITCKSSQSLLASGNQNNYLAWYQQKPGKAPKMLIIWASTRVSGVPSRFSGSGSGTDFTLTISSLQPEDFATYYCQQSYSRPYTFGQGTKVEIKRTVAAPSVFIFPPSDEQLKSGTASVVCLLNNFYPREAKVQWKVDNALQSGNSQESVTEQDSKDSTYSLSSTLTLSKADYEKHKVYACEVTHQGLSSPVTKSFNRGEC
Akt phosphorylation (%) in Caki-1 cells, 5 ug/ml, 30 min [1]: ≤ 18%
relative cell viability (%) of MKN45 cells, 72 h [1]: ~60%
